Measurements from patent WO2022034912A1 (dated 2022).

T1: biotinylated hTRPV2 (hTRPV2 full-length expression vector with Myc-Biotinylation-His tag, expressed in HEK293 … (human, UniProt Q9Y5S1 1-764, biotinylated on the tag (Myc-Biotin-His tag)))
T1 construct: also called biotinylated hTRPV2-expressing HEK293 cells; not shown: Myc-Biotinylation-His tag
T1 sequence: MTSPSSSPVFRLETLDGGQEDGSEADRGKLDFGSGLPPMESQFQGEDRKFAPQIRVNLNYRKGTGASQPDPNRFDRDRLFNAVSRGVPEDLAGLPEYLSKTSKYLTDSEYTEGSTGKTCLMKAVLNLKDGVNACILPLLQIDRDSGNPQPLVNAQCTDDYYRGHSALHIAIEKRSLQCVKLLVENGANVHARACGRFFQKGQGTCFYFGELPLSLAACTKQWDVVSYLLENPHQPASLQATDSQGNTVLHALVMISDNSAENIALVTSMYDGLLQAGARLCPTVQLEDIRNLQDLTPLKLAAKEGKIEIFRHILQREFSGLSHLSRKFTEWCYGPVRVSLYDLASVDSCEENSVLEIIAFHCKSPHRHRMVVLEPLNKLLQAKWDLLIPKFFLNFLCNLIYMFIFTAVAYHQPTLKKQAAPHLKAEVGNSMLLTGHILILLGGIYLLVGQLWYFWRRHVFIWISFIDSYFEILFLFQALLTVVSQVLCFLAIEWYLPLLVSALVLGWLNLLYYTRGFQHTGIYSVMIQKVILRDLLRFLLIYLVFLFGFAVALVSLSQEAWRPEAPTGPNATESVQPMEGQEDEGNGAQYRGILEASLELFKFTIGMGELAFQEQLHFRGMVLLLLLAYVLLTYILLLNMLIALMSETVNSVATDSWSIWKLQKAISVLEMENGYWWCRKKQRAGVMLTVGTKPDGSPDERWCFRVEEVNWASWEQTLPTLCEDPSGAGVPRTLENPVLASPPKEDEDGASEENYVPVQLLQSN

T2: hTRPV2 extracellular domain-biotin (572-609) (human, biotin added with the lysine residue at the C-terminus)
T2 construct: Synthetic polypeptide, analyte in the SPR measurement; also called hTRPV2 extracellular domain (572-609)
T2 peptide: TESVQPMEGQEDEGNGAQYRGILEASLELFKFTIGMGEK

T3: mouse TRPV2 (mouse, UniProt Q9WTR1 1-756)
T3 construct: whole, on cells; In the Western blot solubilised from the cells; also called mTRPV2; mTRPV2-expressing HEK293 cells
T3 sequence (looked up): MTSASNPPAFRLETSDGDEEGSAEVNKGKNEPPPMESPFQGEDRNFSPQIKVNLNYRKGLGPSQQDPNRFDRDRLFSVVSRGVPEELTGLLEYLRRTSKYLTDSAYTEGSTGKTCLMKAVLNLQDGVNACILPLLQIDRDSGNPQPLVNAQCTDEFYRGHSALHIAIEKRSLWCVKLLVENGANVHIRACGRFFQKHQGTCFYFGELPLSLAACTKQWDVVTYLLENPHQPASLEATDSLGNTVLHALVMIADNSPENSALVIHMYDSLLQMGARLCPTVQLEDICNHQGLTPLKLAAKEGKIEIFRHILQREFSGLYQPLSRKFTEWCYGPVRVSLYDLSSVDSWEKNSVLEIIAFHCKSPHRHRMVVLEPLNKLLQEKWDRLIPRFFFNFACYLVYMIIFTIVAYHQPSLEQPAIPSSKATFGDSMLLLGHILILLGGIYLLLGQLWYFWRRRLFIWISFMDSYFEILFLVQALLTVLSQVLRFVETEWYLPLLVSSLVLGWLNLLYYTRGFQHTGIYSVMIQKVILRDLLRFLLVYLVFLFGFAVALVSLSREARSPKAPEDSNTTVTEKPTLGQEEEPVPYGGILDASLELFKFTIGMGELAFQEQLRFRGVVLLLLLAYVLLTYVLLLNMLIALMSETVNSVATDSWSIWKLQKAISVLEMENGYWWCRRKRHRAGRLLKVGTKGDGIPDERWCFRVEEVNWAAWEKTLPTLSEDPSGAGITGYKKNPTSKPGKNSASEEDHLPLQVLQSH

T4: human TRPV2 (transient receptor potential cation channel, subfamily V, member 2) (human, UniProt Q9Y5S1 1-764)
T4 sequence: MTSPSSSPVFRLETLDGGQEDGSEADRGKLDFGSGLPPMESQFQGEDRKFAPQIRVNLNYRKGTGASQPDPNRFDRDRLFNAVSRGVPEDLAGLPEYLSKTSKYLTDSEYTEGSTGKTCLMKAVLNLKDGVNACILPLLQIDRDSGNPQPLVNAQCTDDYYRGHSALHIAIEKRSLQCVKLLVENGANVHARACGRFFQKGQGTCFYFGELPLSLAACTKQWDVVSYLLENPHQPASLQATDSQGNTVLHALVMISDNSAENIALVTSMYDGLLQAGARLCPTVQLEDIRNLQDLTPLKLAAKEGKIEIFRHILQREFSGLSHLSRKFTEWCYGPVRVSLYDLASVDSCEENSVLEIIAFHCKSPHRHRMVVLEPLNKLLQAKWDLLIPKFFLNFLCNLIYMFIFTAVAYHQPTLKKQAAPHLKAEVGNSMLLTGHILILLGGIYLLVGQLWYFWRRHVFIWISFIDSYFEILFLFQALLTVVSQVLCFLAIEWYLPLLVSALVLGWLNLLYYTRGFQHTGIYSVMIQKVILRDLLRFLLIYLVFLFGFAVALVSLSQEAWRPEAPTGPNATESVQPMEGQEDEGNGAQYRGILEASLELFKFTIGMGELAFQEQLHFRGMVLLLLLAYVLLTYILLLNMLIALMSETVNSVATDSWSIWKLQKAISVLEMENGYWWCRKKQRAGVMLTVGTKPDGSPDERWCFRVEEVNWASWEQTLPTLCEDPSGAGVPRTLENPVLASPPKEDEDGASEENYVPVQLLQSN


Tests used:
[1] = biological target: T1, biotinylated hTRPV2 (hTRPV2 full-length …); test: flow cytometry on hTRPV2-expressing 293 cells, purified IgG
[2] = biological target: T2, hTRPV2 extracellular domain-biotin …; test: SPR (Biacore T200), antibody captured on anti-mouse IgG(Fc), peptide 10-1000 nM as analyte, 1:1 model
[3] = biological target: T3, mouse TRPV2; test: Western blot of solubilised mTRPV2-expressing HEK293 cells
[4] = biological target: T4, human TRPV2 (transient receptor …); test: cell-based or functional assay

binding result [1]	Binder	other results
binds	humanized mAb002 antibody (VH14+VL1) (antibody, V domains shown, Full-length human IgG made in Expi293F cells) VH: QVQLQESGPGLVKPSQSLSLTCTVSGFSLTSFGIHWIRQPPGKGLEWIGVIWSGGITHYNSALMSRVSISKDTSKNQVFLKLSSVTAADTAMYYCAKLYSHPHAMDYWGQGTLVTVSS VL: DIVMTQSPLSLPVTPGEPASISCRSSKSLLHSNGITYLYWYLQKPGQSPQLLIYRMSNLASGVPDRFSGSGSGTDFTLKISRVEAEDVGVYYCMQHLEYPLTFGGGTKLEIK	–
binds	humanized mAb002 antibody (VH12+VL1) (antibody, V domains shown, Full-length human IgG made in Expi293F cells) VH: QVQLQESGPGLVKPSQSLSLTCTVSGFSLTSFGIHWIRQPPGKGLEWIGVIWSGGITHYNSALMSRVSISKDNSKNQVFLKMNSVTAADTAMYYCAKLYSHPHAMDYWGQGTLVTVSS VL: DIVMTQSPLSLPVTPGEPASISCRSSKSLLHSNGITYLYWYLQKPGQSPQLLIYRMSNLASGVPDRFSGSGSGTDFTLKISRVEAEDVGVYYCMQHLEYPLTFGGGTKLEIK	–
binds	humanized mAb002 antibody (VH13+VL1) (antibody, V domains shown, Full-length human IgG made in Expi293F cells) VH: QVQLKQSGPGLVAPSQSLSITCTVSGFSLTSFGIHWIRQPPGKGLEWIGVIWSGGITHYNSALMSRLSISKDTSKNQVFLKLSSVTAADTAMYYCAKLYSHPHAMDYWGQGTLVTVSS VL: DIVMTQSPLSLPVTPGEPASISCRSSKSLLHSNGITYLYWYLQKPGQSPQLLIYRMSNLASGVPDRFSGSGSGTDFTLKISRVEAEDVGVYYCMQHLEYPLTFGGGTKLEIK	–
binds	humanized mAb002 antibody (VH15+VL1) (antibody, V domains shown, Full-length human IgG made in Expi293F cells) VH: QVQLQESGPGLVKPSQSLSLTCTVSGFSLTSFGIHWIRQPPGKGLEWIGVIWSGGITHYNSALMSRVSISKDTSKNQVSLKLSSVTAADTAMYYCAKLYSHPHAMDYWGQGTLVTVSS VL: DIVMTQSPLSLPVTPGEPASISCRSSKSLLHSNGITYLYWYLQKPGQSPQLLIYRMSNLASGVPDRFSGSGSGTDFTLKISRVEAEDVGVYYCMQHLEYPLTFGGGTKLEIK	–
binds	humanized mAb002 antibody (VH16+VL1) (antibody, V domains shown, Full-length human IgG made in Expi293F cells) VH: QVQLQESGPGLVAPSQTLSLTCTVSGFSLTSFGIHWIRQPPGKGLEWIGVIWSGGITHYNSALMSRVSISKDTSKNQVFLKLSSVTAADTAMYYCAKLYSHPHAMDYWGQGTLVTVSS VL: DIVMTQSPLSLPVTPGEPASISCRSSKSLLHSNGITYLYWYLQKPGQSPQLLIYRMSNLASGVPDRFSGSGSGTDFTLKISRVEAEDVGVYYCMQHLEYPLTFGGGTKLEIK	–
–	anti-human TRPV2 IgG antibody mAb002 (02a001) (antibody, V domains shown, Mouse IgG: VH joined to mouse CH1,2,3 and VL to CK, made in CHO-K1 cells, purified on Protein A; also called anti-hTRPV2 antibody (mAb002)) VH: QVQLKQSGPVLVAPSQSLSITCTVSGFSLTSFGIHWVRQPPGKGLEWLGVIWSGGITHYNSALMSRLSISKDNSKSQVFLKMNSLQTDDTAMYYCAKLYSHPHAMDYWGQGTSVTVSS VL: DIVMTQAAPSVPVTPGESVSISCRSSKSLLHSNGITYLYWFLQRPGQSPQLLIYRMSNLASGVPDRFSASGSGTAFTLRISRVEAEDVGVYYCMQHLEYPLTFGAGTKLELK	Kd [2]: 19.2 nM; binding result [3]: no binding (tested: 500-fold dilution); IC50 of the inhibition of Ca 2+ influx into hTRPV2-expressing HEK293 cells (Cal520 fluorescence, cannabidiol and probenecid stimulation) [4]: 8.9 nM
–	anti-human TRPV2 IgG antibody mAb001 (01a033) (antibody, V domains shown, Mouse IgG: VH joined to mouse CH1,2,3 and VL to CK, made in CHO-K1 cells, purified on Protein A; also called anti-hTRPV2 antibody (mAb001)) VH: QVQLKESGPDLVQPSQTLSLTCTVSGFSLTTYGVHWVRQPPGKGLEWVGTMGWDGKKYYNSALKSRLSISRDTSKNQVFLKLSSLQTEDTAMYYCTRDGGYTWFAYWGQGTLVTVSA VL: NIVMTQSPSSLAVSAGEKVTMSCKSSQSLLNSRTRKNYLAWYQQKPGQSPKLLIYWASTRESGVPDRFTGSGSGTDFTLTISSVQAEDLAVYYCKQSYNLFTFGGGTKLEIK	Kd [2]: 188 nM
